Assays:
TNBC PDX tumors = test: TNBC PDX models, single agent or combination with olaparib; assay type: in vivo, athymic nude Fox1^nu mice; conditions: CTG-0437, CTG-1017, and CTG-2055; olaparib p.o. 50 mg/kg qd×28
Source text: The activity of Conjugate 46 as a single agent or in combination with the PARP inhibitor olaparib was additionally assessed in TNBC PDX models. Briefly, PDX tumors, spanning varying levels of ROR1 expression and sensitivity to olaparib, were passaged in athymic nude Fox1^nu mice before being processed into tumor fragments for subcutaneous implantation into the hind flank of mice for study initiation. When tumors reached a volume of around 150-300 mm^3, the mice were randomized and enrolled into the study. Tumor-bearing mice were administered up to three weekly doses (qw×3) of Conjugate 46 i.v. at 5 mg/kg and up to twenty-eight daily doses (qd×28) of olaparib p.o. at 50 mg/kg.
Combination treatment with Conjugate 46 and olaparib (50 mg/kg, qd×28) is conducted using a 2 mg/kg, qw×3 dosing regimen for Conjugate 46. The combination therapy is assessed in six TNBC PDX models as described in Example 26.

[1] = molecular target: T1, hROR1 (ROR1-extracellular domain) (Homo sapiens, UniProt Q01973); test: Biacore off-rate and kinetic analysis, ROR1 extracellular domain; assay type: binding; conditions: Sample ROR1 ECD, SPR
T1 construct: the ROR1-extracellular domain (hROR1); purchased Acro Biosystems
Experimental: Anti-Fc polyclonal antibodies were immobilized onto a CM5 chip (GE Life Sciences) using amine coupling chemistry (from Amine Coupling Kit, GE Life Sciences). The immobilization steps were carried out at a flow rate of 25 μL/min in 1×HBS-EP+ buffer (GE Life Sciences; 10× Stock diluted before use). The sensor surfaces were activated for 7 min with a mixture of NHS (0.05 M) and EDC (0.2 M). The Anti-Fc antibodies were injected over all 4 flow cells at a concentration of 25 ug/ml in 10 mM sodium acetate, pH 4.5, for 7 min. Ethanolamine (1 M, pH 8.5) was injected for 7 min to block any remaining activated groups. […]
The data was fit with the Biacore T200 Evaluation software, using a 1-1 Langmuir binding model. KD (affinity, nM) was determined as a ratio of the kinetic rate constants calculated from the fits of the association and dissociation phases.
For anti-CD3-LC-containing IgGs that had detectable ROR1-binding in ELISA (1944-A07 and 1987-C05 variants), those antibodies were further tested for binding by surface plasmon resonance (SPR). Binding kinetics were assessed to the ROR1-frizzled domain (hROR1-Fz) or the ROR1-extracellular domain (hROR1) for 1944-A07 and 1987-C05 variants, respectively. […] KD (affinity, nM) was determined as a ratio of the kinetic rate constants calculated from the fits of the association and dissociation phases.

MDA-MB-231 tumor = test: MDA-MB-231 TNBC xenograft model; assay type: in vivo, SCID/beige mice
Experimental: (§1) The activities of ROR1-targeted ADCs described herein were examined in a MDA-MB-231 TNBC xenograft model. Briefly, SCID/beige mice were implanted subcutaneously with 5×10^6 MDA-MB-231 tumor cells in the mammary fat pad and randomized and enrolled into the study 7 days post implant, with tumor sizes around 130 mm^3. Tumor-bearing mice were administered four weekly doses (qw×4) of the test articles at doses ranging from 2 mg/kg to 5 mg/kg. All treatments were well tolerated with normal body weight gain throughout the course of the study.
as §1, with “SCID/beige” for “The activities of ROR1-targeted ADCs described herein were examined in a MDA-MB-231 TNBC xenograft model. Briefly, SCID/beige”
as §1, with “SCID/beige” for “The activities of ROR1-targeted ADCs described herein were examined in a MDA-MB-231 TNBC xenograft model. Briefly, SCID/beige”, “three” for “four”, “(qw×3)” for “(qw×4)”, “study. […]” for “study.”

Molecule: O=C(c1cc(Cc2n[nH]c(=O)c3ccccc23)ccc1F)N1CCN(C(=O)C2CC2)CC1 [olaparib]
- tumor growth suppression, single agent (TNBC PDX tumors): moderate tumor growth suppression

B1: 1987-C05 HC w/hUCHT1 LC3: HC of lead antibody 1987-C05 co-expressed with LC "derived from anti-CD3 antibodies": hUCHT1-LC3 (antibody, V domains shown)
VH: EVQLVESGGGLVQPGGSLRLSCAASGFNISDYDIHWVRQAPGKGLEWVGGIDPDDGSTDYADSVKGRFTISADTSKNTAYLQMNSLRAEDTAVYYCARDYGVFDYWGQGTLVTVSS
VL: DIQMTQSPSTLSASVGDRVTITCRASQDIRNYLNWYQQKPGKAPKLLIYYTSRLHSGVPSRFSGSGSGTEYTLTISSLQPDDFATYYCQQGNTLPWTFGGGTKVEIK
- kd1 [1]: 0.000645 s⁻¹
- ka1 ([1]; 1-1 Langmuir): 566000 M⁻¹ s⁻¹

B2: Conjugate 4 (conjugate)
heavy: MEVQLVESGGGLVQPGGSLRLSCAASGFNISDYDIHWVRQAPGKGLEWVGGIDPADGSTDYADSVKGRFTISADTSKNTAYLQMNSLRAEDTAVYYCARDYGVYDYWGQGTLVTVSSASTKGPSVFPLAPSSKSTSGGTAALGCLVKDYFPEPVTVSWNSGALTSGVHTFPAVLQSSGLSLSSVVTVPSSSLGTQTYICNVNHKPSNTKVDKKVEPKSCDKTHTCPPCPAPELLGGPSVFLFPPKPKDTLMISRTPEVTCVVVDVSHEDPEVKFNWYVDGVEVHNAKTKPREEQYNSTYRVVSVLTVLHQDWLNGKEYKCKVSNKALPAPIEKTISKAKGQPREPQVYTLPPSREEMTKNQVSLTCLVKGFYPSDIAVEWESNGQPENNYKTTPPVLDSDGSFLYSKLTVDKSRWQQGNVFSCSVMHEALHNHYTQKSLSLSPGK
light: MDIQMTQSPSSLSASVGDRVTITCRASQDVNTAVAWYQQKPGAPKLLIYSASFLYSGVPSRFSGSRSGTDFTLTISSLQPEDFATYYCQQHYTTPPTFGQGTKVEIKRTVAAPSVFIFPPSDEQLKSGTASVVCLLNNFYPREAKVQWKVDNALQSGNSQSVTEQDSKDSTYSLSSTLTLSKADYEKHKVYACEVTHQGLSSPVTKSFNRGEC
- TGI (MDA-MB-231 tumor; Example 20, day 42, 2 mg/kg qw×4): 36%
- TGI (MDA-MB-231 tumor; Example 21, day 43, 5 mg/kg qw×4): 23%

From patent US12226490B2, “Anti-ROR1 antibody conjugates, compositions comprising anti ROR1 antibody conjugates, and methods of making and using anti-ROR1 antibody conjugates preliminary class” (Sutro Biopharma, Inc., priority 2022, dated 2025)
